Test results as given in patent US20120277164A1 (IMPERIAL INNOVATIONS, published 2012).
Square brackets hold non-standard residues; d marks the D form. * marks the point of attachment. Fmoc = O=C(OCC1c2ccccc2-c2ccccc21)*; Cbz = O=C(OCc1ccccc1)*; Bz = O=C(c1ccccc1)*; βAla = NCCC(=O)O

T1: Gadd45β/MKK7 complex (biotin-hGadd45β with coated GST-MKK7, ELISA format) (human) (UniProt O75293)
T1 sequence (biotinylated (sites not stated), looked up) 1: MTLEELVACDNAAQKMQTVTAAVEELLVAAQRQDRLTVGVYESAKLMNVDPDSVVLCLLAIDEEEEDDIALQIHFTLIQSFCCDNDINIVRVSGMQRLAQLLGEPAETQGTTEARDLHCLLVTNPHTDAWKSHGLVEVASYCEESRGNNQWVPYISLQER
T1 sequence (biotinylated (sites not stated), looked up) 2: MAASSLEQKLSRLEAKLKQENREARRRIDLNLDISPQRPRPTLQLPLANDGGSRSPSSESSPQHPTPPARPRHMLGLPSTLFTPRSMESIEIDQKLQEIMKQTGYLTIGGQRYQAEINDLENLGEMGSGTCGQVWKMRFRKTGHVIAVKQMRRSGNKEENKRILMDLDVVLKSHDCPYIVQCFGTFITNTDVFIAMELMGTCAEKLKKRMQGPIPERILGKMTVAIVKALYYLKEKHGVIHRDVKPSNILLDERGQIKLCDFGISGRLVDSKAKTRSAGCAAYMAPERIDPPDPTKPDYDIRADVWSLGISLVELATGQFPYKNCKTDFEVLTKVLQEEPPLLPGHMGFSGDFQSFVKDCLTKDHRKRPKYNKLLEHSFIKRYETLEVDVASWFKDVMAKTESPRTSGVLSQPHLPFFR

T2: Gadd45β/MKK7 complex (biotin-hGadd45β with coated GST-MKK7, ELISA format) (human, UniProt O75293 1-160; O14733 1-419, biotinylated (sites not given))
T2 construct: not shown: glutathione S-transferase (GST) fusion partner
T2 sequence (looked up) 1: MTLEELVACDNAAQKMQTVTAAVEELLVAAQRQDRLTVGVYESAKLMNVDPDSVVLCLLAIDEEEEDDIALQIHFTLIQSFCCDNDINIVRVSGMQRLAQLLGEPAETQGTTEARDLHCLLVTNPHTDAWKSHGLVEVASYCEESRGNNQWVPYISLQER
T2 sequence (looked up) 2: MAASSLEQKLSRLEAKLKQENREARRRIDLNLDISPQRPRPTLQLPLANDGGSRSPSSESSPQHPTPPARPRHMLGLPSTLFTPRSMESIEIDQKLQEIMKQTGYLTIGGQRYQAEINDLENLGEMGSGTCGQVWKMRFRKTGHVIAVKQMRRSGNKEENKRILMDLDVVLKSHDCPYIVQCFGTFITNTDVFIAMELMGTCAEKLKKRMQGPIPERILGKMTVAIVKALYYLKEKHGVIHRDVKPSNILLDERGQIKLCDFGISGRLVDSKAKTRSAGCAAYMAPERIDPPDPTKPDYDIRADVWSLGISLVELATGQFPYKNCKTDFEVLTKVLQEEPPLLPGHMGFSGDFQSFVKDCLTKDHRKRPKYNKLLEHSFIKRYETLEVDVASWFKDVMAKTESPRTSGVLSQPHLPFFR


Tests used:
[1] = target: T1, Gadd45β/MKK7 complex (biotin-hGadd45β with coated GST-MKK7, ELISA format) (human); experiment: competition ELISA; coated MKK7 42 nM, biotin-hGadd45β 21 nM, competitor 42 nM nominal
[2] = target: T1, Gadd45β/MKK7 complex (biotin-hGadd45β with coated GST-MKK7, ELISA format) (human); experiment: competition ELISA; coated GST-MKK7, biotin-hGadd45β; single dose
[3] = target: T1, Gadd45β/MKK7 complex (biotin-hGadd45β with coated GST-MKK7, ELISA format) (human); experiment: competition ELISA; coated GST-MKK7 42 nM, biotin-hGadd45β 21 nM
[4] = target: T1, Gadd45β/MKK7 complex (biotin-hGadd45β with coated GST-MKK7, ELISA format) (human); experiment: derived from the in vitro ELISA competition IC50 (Gadd45β/MKK7)
[5] = target: T1, Gadd45β/MKK7 complex (biotin-hGadd45β with coated GST-MKK7, ELISA format) (human); experiment: competition ELISA after 48-hr pre-incubation of the peptide with human serum at 37 °C
[6] = target: T1, Gadd45β/MKK7 complex (biotin-hGadd45β with coated GST-MKK7, ELISA format) (human); experiment: ELISA competition assay: coated MKK7, soluble biotin-hGadd45β; peptide pre-incubated 48 hr with human serum at 37° C.; after 48-hr incubation with human serum at 37° C.
[7] = target: T2, Gadd45β/MKK7 complex (biotin-hGadd45β …); experiment: competition ELISA; coated MKK7 42 nM, biotin-hGadd45β 21 nM, competitor 42 nM nominal
[8] = target: T2, Gadd45β/MKK7 complex (biotin-hGadd45β …); experiment: competition ELISA; coated GST-MKK7, biotin-hGadd45β; single dose
[9] = target: T2, Gadd45β/MKK7 complex (biotin-hGadd45β …); experiment: as above; remark: listed apart in the source
[10] = target: T1, Gadd45β/MKK7 complex (biotin-hGadd45β with coated GST-MKK7, ELISA format) (human); experiment: competition ELISA; coated MKK7, biotin-hGadd45β (FIG. 3C)

% Inhibition of Gadd45β-MKK7 binding [2] [%]	% Inhibition of Gadd45β-MKK7 binding [7] [%]	Molecule	other results
–	–	Fmoc(βAla)2-YDHQ-NH2 as printed in row r19 of Table I	% Inhibition of Gadd45β-MKK7 binding [1]: 26%
19	–	Fmoc-YDFQ-NH2	–
–	–	mDTP3 (Ac-D-Tyr-D-Arg-D-Phe-NH2) (peptide)	IC50 [3]: 0.157 nM; Ligand Efficiency [4]: -0.24
7	–	Ac-AERF-NH2 [Ac-AERF-NH2]	–
3	–	Cbz-YD(OMe)HQ-NH2 [Z-YD(OMe)HQ-NH2]	–
–	–	{Fmoc-βAla-βAla}-YDHR-NH2 (SMILES N=C(N)NCCC[C@H](NC(=O)[C@H](Cc1c[nH]cn1)NC(=O)[C@H](CC(=O)O)NC(=O)[C@H](Cc1ccc(O)cc1)NC(=O)CCNC(=O)CCNC(=O)OCC1c2ccccc2-c2ccccc21)C(N)=O) [Fmoc(βAla)2-YDHR-NH2]	% Inhibition of Gadd45β-MKK7 binding [1]: 2%
6	–	Ac-YERFK(Cbz)-NH2 (SMILES CC(=O)N[C@@H](Cc1ccc(O)cc1)C(=O)N[C@@H](CCC(=O)O)C(=O)N[C@@H](CCCNC(=N)N)C(=O)N[C@@H](Cc1ccccc1)C(=O)N[C@@H](CCCCNC(=O)OCc1ccccc1)C(N)=O) [Ac-YERFLys(Z)-NH2]	–
–	–	Cbz-[dY][dE][dR][dF]-NH2 [Z-DTP2 (Z-D-Tyr-D-Glu-D-Arg-D-Phe-NH2)]	IC50 [3]: 0.19 nM; IC50 [5]: 0.18 nM; Ligand Efficiency [4]: -0.26; IC50 [6]: 0.18 nM
2	–	Ac-YDHQK(Cbz)-NH2 (SMILES CC(=O)N[C@@H](Cc1ccc(O)cc1)C(=O)N[C@@H](CC(=O)O)C(=O)N[C@@H](Cc1c[nH]cn1)C(=O)N[C@@H](CCC(N)=O)C(=O)N[C@@H](CCCCNC(=O)OCc1ccccc1)C(N)=O) [Ac-YDHQLys(Z)-NH2]	–
–	–	Cbz-[dY][dD][dH][dF]-NH2 [Z-Tyr-Asp-His-Phe-NH2 (Z-DTP1)]	IC50 [3]: 0.22 nM; IC50 [5]: 0.19 nM; IC50 [6]: 0.19 nM
–	99	{Fmoc-βAla-βAla}-YDHF-NH2 (also called Fmoc-LTP1) [Fmoc(βAla)2-YDHF-NH2]	–
–	–	Ac-YEHF-NH2 [Ac-YEHF-NH2]	% Inhibition of Gadd45β-MKK7 binding [8]: 52%; % Inhibition of Gadd45β-MKK7 binding [9]: 23%
–	14	{Fmoc-βAla-βAla}-YDHM-NH2 (SMILES CSCC[C@H](NC(=O)[C@H](Cc1c[nH]cn1)NC(=O)[C@H](CC(=O)O)NC(=O)[C@H](Cc1ccc(O)cc1)NC(=O)CCNC(=O)CCNC(=O)OCC1c2ccccc2-c2ccccc21)C(N)=O) [Fmoc(βAla)2-YDHM-NH2]	–
–	0	{Fmoc-βAla-βAla}-YDHD-NH2 (SMILES NC(=O)[C@H](CC(=O)O)NC(=O)[C@H](Cc1c[nH]cn1)NC(=O)[C@H](CC(=O)O)NC(=O)[C@H](Cc1ccc(O)cc1)NC(=O)CCNC(=O)CCNC(=O)OCC1c2ccccc2-c2ccccc21) [Fmoc(βAla)2-YDHD-NH2]	–
–	16	{Fmoc-βAla-βAla}-YDHP-NH2 (SMILES NC(=O)[C@@H]1CCCN1C(=O)[C@H](Cc1c[nH]cn1)NC(=O)[C@H](CC(=O)O)NC(=O)[C@H](Cc1ccc(O)cc1)NC(=O)CCNC(=O)CCNC(=O)OCC1c2ccccc2-c2ccccc21) [Fmoc(βAla)2-YDHP-NH2]	–
–	0	{Fmoc-βAla-βAla}-YDHQ-NH2 [Fmoc(βAla)2-YDHQ-NH2]	–
–	0	{Fmoc-βAla-βAla}-YDHS-NH2 (SMILES NC(=O)[C@H](CO)NC(=O)[C@H](Cc1c[nH]cn1)NC(=O)[C@H](CC(=O)O)NC(=O)[C@H](Cc1ccc(O)cc1)NC(=O)CCNC(=O)CCNC(=O)OCC1c2ccccc2-c2ccccc21) [Fmoc(βAla)2-YDHS-NH2]	–
–	40	{Fmoc-βAla-βAla}-YDHH-NH2 (SMILES NC(=O)[C@H](Cc1c[nH]cn1)NC(=O)[C@H](Cc1c[nH]cn1)NC(=O)[C@H](CC(=O)O)NC(=O)[C@H](Cc1ccc(O)cc1)NC(=O)CCNC(=O)CCNC(=O)OCC1c2ccccc2-c2ccccc21) [Fmoc(βAla)2-YDHH-NH2]	–
–	33	{Fmoc-βAla-βAla}-YDHL-NH2 (SMILES CC(C)C[C@H](NC(=O)[C@H](Cc1c[nH]cn1)NC(=O)[C@H](CC(=O)O)NC(=O)[C@H](Cc1ccc(O)cc1)NC(=O)CCNC(=O)CCNC(=O)OCC1c2ccccc2-c2ccccc21)C(N)=O) [Fmoc(βAla)2-YDHL-NH2]	–
–	63	{Fmoc-βAla-βAla}-YDHY-NH2 (SMILES NC(=O)[C@H](Cc1ccc(O)cc1)NC(=O)[C@H](Cc1c[nH]cn1)NC(=O)[C@H](CC(=O)O)NC(=O)[C@H](Cc1ccc(O)cc1)NC(=O)CCNC(=O)CCNC(=O)OCC1c2ccccc2-c2ccccc21) [Fmoc(βAla)2-YDHY-NH2]	–
–	15	{Fmoc-βAla-βAla}-YDHA-NH2 (SMILES C[C@H](NC(=O)[C@H](Cc1c[nH]cn1)NC(=O)[C@H](CC(=O)O)NC(=O)[C@H](Cc1ccc(O)cc1)NC(=O)CCNC(=O)CCNC(=O)OCC1c2ccccc2-c2ccccc21)C(N)=O) [Fmoc(βAla)2-YDHA-NH2]	–
–	44	{Fmoc-βAla-βAla}-YDHC-NH2 (SMILES NC(=O)[C@H](CS)NC(=O)[C@H](Cc1c[nH]cn1)NC(=O)[C@H](CC(=O)O)NC(=O)[C@H](Cc1ccc(O)cc1)NC(=O)CCNC(=O)CCNC(=O)OCC1c2ccccc2-c2ccccc21) [Fmoc(βAla)2-YDHC-NH2]	–
–	–	Ac-[dY][dE][dR][dF]-NH2 (SMILES CC(=O)N[C@H](Cc1ccc(O)cc1)C(=O)N[C@H](CCC(=O)O)C(=O)N[C@H](CCCNC(=N)N)C(=O)N[C@H](Cc1ccccc1)C(N)=O) [DTP2, Acetyl-(D-Tyr)-(D-Glu)-(D-Arg)-(D-Phe)-NH2]	IC50 [10]: 0.19 nM
1	–	Bz-YDHQ-NH2 [Benzoic acid-YDHQ-NH2]	–
99	–	Ac-YDHQ-NH2 [Ac-YDHQ-NH2]	–
7	–	{3‑OH‑4MeO‑benzoic acid}-YDHQ-NH2 (not fully specified) [3-OH-4MeO-Benzoid acid-YDHQ-NH2]	–
8	–	Ac-YDHFK(Cbz)-NH2 (SMILES CC(=O)N[C@@H](Cc1ccc(O)cc1)C(=O)N[C@@H](CC(=O)O)C(=O)N[C@@H](Cc1c[nH]cn1)C(=O)N[C@@H](Cc1ccccc1)C(=O)N[C@@H](CCCCNC(=O)OCc1ccccc1)C(N)=O) [Ac-YDHFLys(Z)-NH2]	–
–	–	Ac-[dY][dD][dH][dF]-NH2 (SMILES CC(=O)N[C@H](Cc1ccc(O)cc1)C(=O)N[C@H](CC(=O)O)C(=O)N[C@H](Cc1c[nH]cn1)C(=O)N[C@H](Cc1ccccc1)C(N)=O) [DTP1, Acetyl-(D-Tyr)-(D-Asp)-(D-His)-(D-Phe)-NH2]	IC50 [10]: 0.22 nM
